Results on 22 sequences are retold here after a protein production outcome set (Wang et al. 2014).

A short description of the series: label from the status in PepcDB records.
For the sequence “MPNFKSKKIKEINLPYSKDDVEFLWLAKNDNVSLIYTKVQEESFFLQIKKAQNGFVIKGDKHTKPSKIGYLQKALKIFKEGFCEDIINEAFGLKNNALIEKTPFIVDNFDELLSRLQGKIYIEIGFGSGRHLLYQAKENPNVLILGVEIYNPALTQVAKLAKAQNVNNILLIQSDARLLLSVLKSKSVEKIFLHFPVPWDKKPHRRVIGKDFCKECARVLVQNGRFELRTDSFEYFNFTLEQFLTFPAPKFSLRKNENLEISSKYEDRWKKQEKNIYDLWVWNFNQECKNYELNEFNLSSVEFSKEDLKKIEQNFKNITIKKDDFFLHFESIYKQDENLLLKVAFGAFNKPEHCYLHLDKTIDFAFKEPFKIQENIKAINELKEILKVQFKI”, the protein production result is on record as “failed”. The entry for “MRLLAILILCILVAACDRQAATEELTEARSAFANREWNDAERLLEGYLRRNPEGAQRWEAWNLLVEVAHRVRNDERATVELLETMYLENGSNPERAYDILTRLGELLEAGRDFRRAAEVWPRVLELPGLTPDTRALVSRRLARILVMQRRFPEAEERLKACLDTEGLSTEGRAGCLYDLADLNVASEHLDVAVDLATTLVGLEGLTPELRSQAGFLLADALEQRGRFAEALERFEALRGVYPNDMVIDTRVRHLKGRLGRK” is “failed”. For “MPKIPITLITGFLGSGKTSFLSEYLNQTDHQGVALIINEIGQAALDQRILSVQYCGEKMLYLNAGCVCCNKRLDLVESLKATLNNYEWHGEILRRIIIETTGLANPAPILWTILSDTFLGVHFEIQSVVACVDALNAREHLTNNEAKEQIVFADSVLLTKTDLQNDSAALTKLKERIQALNPSAEIFDKRAIDYESLFSRKNRARNFMPRMPKDSHSQGFETLSINFEGTMEWSAFGIWLSLLLHQYGTQILRIKGIIDIGSGFLVSINGVMHVIYPPKHILKDQNGSNLVFIMRHLEREKILNSLKGFKDFLGIKGFETQLEHHHHHH”, the protein production entry is recorded as “not failed”. In the case of “MMARVEKLRELMKENNLQGFLVTSPYNLRYLTNFTGTTGLAMITLDKAFFVTDFRYTEQAAEQATGFTIVKNTGHIFDEVADLAERLQLDNLAFEETQVSFADYSLLEEILPCELVPVMGLIEELREVK” it was “not failed”; in that of “KKPKHHVLSHDIIPASKPIAEKLQIQPESPVVELKRILYNDDQPLTFEVTHYPLDLFPGIDTFIADGVSMHDILKQQYKVVPTHNTKLLNVVYAQQEESKYLDCDIGDALFEIDKTAFTSNDQPIYCSLFLMHT”, “not failed”. The entry for “MEIKDLKRLARYNPEKMAKIPVFQSERMLYDLYALLPGQAQKVHVHEGSDKVYYALEGEVVVRVGEEEALLAPGMAAFAPAGAPHGVRNESASPALLLVVTAPRP” is “not failed”. In the case of “MSLTIKNSLGQSHDYIKMFVKEGDTVVDATCGNGNDTAFLASLVGENGRVFGFDIQDKAIANTTKKLTDLNLIDRVTLIKDGHQNMDKYIDCPVKAVMFNLGYLPSGDHSISTRPETTIQALSKAMELLVTGGIITVVIYYGGDTGFEEKEKVLEFLKGVDQKKFIVQRTDFINQANCPPILVCIEKISEGHHHHHH” it was “not failed”; in that of “MESEKKIAHEIGGVKNDALRFGLHGVKSNIIGSHPLESSYESEKKSKEALKRTVIAHAYGTALPLKMDMDRQILSRFQRPPGPIPSSMLGLEVYTGAVDDFGFEDYLNDPRDSETFKPVDFHHGMEVRLGISKGPIYPSFM”, “failed”. For “LKGEPDCYALSLESSEQLTLEIPLNDSGSAGLGVSLKGNKSRETGTDLGIFIKSIIHGGAAFKDGRLRMNDQLIAVNGETLLGKSNHEAMETLRRSMSMEGNIRGMIQLVILRR”, the protein production entry was “not failed”.

Take “MRFLLMRSLLVHPCGGSIINVRSTTTSAQYVASRSRDPVFEKLMDKYKNLLKVIAIQDLTLANPTADPPSLSIEFLSRLSQKLHLNRGAASFLRKYPHIFHVLYDPVKAEPFCRLTDVAMEISRQEALAITATLSLVVDRLVRLLSMSISKSIPLRAVFKVWRELGLPDDFEDSVISKNPHLFKLSDGHESNTHILELVQEEEKRLEFEAAVEKWRVVECSKEDCSVDRTEIQFSFKHSYPPGMRLSKTFKAKVKEWQRLPYVGPYEDMVGKKKSRSGVMGIEKRAVAIAHEFLNLTVEKMVEVEKISHFRKCFGIDLNIRDLFLDHPGMFYVSTKGKRHTVFLREAYERGRLIDPNPVYDARRKLLDLVLLGRHAALSESGNTSMSEQE”: the protein production entry is “failed”.

For the sequence “MAKYKVGMVSLGCDKNRVDSEIMLGMVQNEYELTNNPKEADIIIVNTCGFIEKAKQESINTILDMAKYKTSHNCKLLIATGCLTQRYGDELLELMPEIDIMLGVNDYAKINEAIMNFINGNNEKVKATNYSDVSINEGLRLITTDKATAYLRIAEGCDNFCTYCIIPKIRGKFRSRALESIVEEAKKLAENGVKELILIAQDTTNYGIDIYGEKKLHLVLRELAKIEGIEWIRVLYCYPEAIYDELIKEISVNDKVCNYLDLPIQHISNNVLKRMGRKTTKEEIIGKINDLRKNVPNIVLRTSLIVGFPGESCEDFNELKDFIKTIKLDKVGVFTYSREEGTPAAIMEDQIDEEVKKAREEEIMLLQKEVSEEINKNKVGREYDVLIEKFNGEYYIGRSYEMAPDIDGCIYVKGNGAKKDQFCKVKIEKALEYDLVGVVCNESCKLEHHHHHH”, the protein production result is listed as “failed”. In the case of “MGPVPIKLALVIPNYNHSAAISQALSELAALNLPCYLIDDGSNDETRYLLQSLAEQHDWVTLLQHPYNRGKGAAVMTGLRSAYRDGFTHALQVDADGQHNLSDIPAMLAKAQAKPDALISGKPEYDKSVPKGRLYGRYLTHFWVWVETLSFDIQDSMCGFRVYPLAATERLFSKQALTERMDFDIEILVKLYWQGVEILFHPTKVIYPENGVSHFQCVADNVRISKLHTRLFFGMLKRLPQLLRRKQAAKSTSSAHTATHWSAMKERGSYWGIKLLVESYRFGGHWLCRAIMYPVICYFFLTGKVSREASRDFLRRVQHLEPQHPQLNQPVGWRDSLNHFIAFGNAALDRIDAWCDRIQLSQVDFPDRQVLADQLESGKGAVLLVSHLGNLELCRAISIHQRKVKVNVMVLTSHAENFNNVLKQLNPNSSLNLIQVTELNPATSMLLQQKIEDGELVVIAGDRTSSHAQGRVVYAPFMGQDAAFPQGPFILAGLLDCPVYLMFCLREQGRYRVHLERFAETLKGPRAGRMERLQQAVYRYSERLEHYARREPLQWFNFFDFWRDDNQVNRATSAHKTTAALPEQERTTDRTEHLLEHHHHHH” it was “not failed”; in that of “MTAILLHNVAKSYRSYDHPWETLWEVFTKTRRHREWTALHPLSLEIAHGEVVGIVGTNGAGKSTLLKLIAGTLTPSAGDIRVNGHVAALLELGAGFHPDMTGRENVYLGASVMGLSSERVDRLYDGIVEFAGLGEFMDQPVKTYSSGMYMRLAFAVATAADPDVLILDEALSVGDGAFARKSFERIIGYKDAGKTILFCSHSLYQVEAICSRVLWLDHGRLVMDGEPARVVSAYAEFLGGGGEGCGTPDQPAPAAVAGSGVGRLTKVEVEADGVEGRKLTVRSGQTDLTVAVGFASDPALPPPSVGLTITGSNGWAVTSASTSNDGLTISRRPDGSGEVELSFPRFPLLKGAYWVNVFLLCEQGIHLYDRIEHAAELEVVQDGLEQGVVSLPRRWSVNGAPASAVSPTVPTVAAWLEHHHHHH”, “failed”; in that of “MLESVAAEPRRAAATDQAGTEARKQRLRRRLERLIGIAATEGNELVPLRNGDEIFPAMLRAIRTAEHTVDMMTFVYWRGQIARDFAAALAERARAGVRVRLLLDGFGAKQIEEGLLESMNSAGVEVAWFRKPLWLSPLKQNHRCHRKVLVVDEHTAFTGGVGIAEEWGGDARNPSEWRDTHVQVRGPAVDGIAAAFAQNWAECHDELFDERDRFTEHEQSGRATVQVVRGSASFGWQDMQTLVRVMLASAEERFRLSTAYFAPDSYFVDLLCATARRGVQVQILLPGPYTDQRACRLAGQHYYGTLLDAGVEIRQYQPTMLHTKIMTVDGVAALIGSSNFNRRSMEHDEEIMLAVLDETFTAALDRDFEEDRERAEAIVAARWKHRSPVQRLKEAIVAPVRRFL”, “failed”. The entry for “MPFATNGAPYYEQLVMQIKQQIVQEVLRPGDQLPSIRAMASEMHLNPNTVSKAYQILEHQRAVYTVKGRGTFVSESSQIATDSNAVDDLQTRLQSLLTEAQFLGISAQQVQAWVTTAYQKGESRDEYPS” is “failed”; for “MTRQGWLVPCLSHGKDDQLQDELSELSKAYRKKFQTDLHTKSGDIIDPSGEFLYVYLDEENYRICRQSMVLVSNAPDGLIATTLEPYSDSYTFRQVREQLQAFSGDGGRINYSRNEHSSSYFLTIQASNEFKHVGAVRNTFGQSKDIWKRRMPDASQPLDYHLIAVGCSAFLPEAALDDVESDGAVLEHHHHHH” it is “not failed”; for “MLQTLYTIILYLIQPLIWIRLWLRGRKAPAYRRRWGERYGFCAEKVKPDGIMLHSVSVGETLAAIPLVRALRHRYPNLPITVTTMTPTGSERVRSAFGDTVYHVYLPYDLPCALKRFFDQVRPKIVIIMETELWPNLIAELHKREIPLVIANARLSERSAAGYKKIGKLMRHILQRITLVAAQNQEDGNRFIALGLKRSSLKVTGSLKFDISVTPELAARAITLRRQWAPHRPVWIATSTHEGEEAIVLAAHRRLLATYPDLLLILVPRHPERFSTTQALAESMGFNYTLRSSGEQPSANTQVVIGDTMGELMLLYGIADLAFVGGSLVERGGHNPLEAAAHAIPVLMGPHTFNFKDICNKLDQADGLITVTDADSLGKEVGKLLADEDYRLYYGRHAVEVLHQNQGALQMLLTLLEPYLPQRTQLEHHHHHH” it is “not failed”. The entry for “MAEFPASLLILNGKSTDNLPLREAIMLLREEGMTIHVRVTWEKGDAARYVEEARKFGVATVIAGGGDGTINEVSTALIQCEGDDIPALGILPLGTANDFATSVGIPEALDKALKLAIAGDAIAIDMAQVNKQTCFINMATGGFGTRITTETPEKLKAALGSVSYIIHGLMRMDTLQPDRCEIRGENFHWQGDALVIGIGNGRQAGGGQQLCPNALINDGLLQLRIFTGDEILPALVSTLKSDEDNPNIIEGASSWFDIQAPHDITFNLDGEPLSGQNFHIEILPAALRCRLPPDCPLLR” is “not failed”.

Regarding “MSGLRVYSTSVTGSREIKSQQSEVTRILDGKRIQYQLVDISQDNALRDEMRTLAGNPKATPPQIVNGNHYCGDYELFVEAVEQDTLQEFLKLA”, the protein production result is recorded as “not failed”.

Regarding “MKDPRDFVPEDLSDLETAMLEMAEKDIRKAYTITDKQERYAALDALKTEIINKFMPETEEDCKFSVDQIATVFKQLQAKIVRSNILDTKKRIDGRDLSTVRPIQSEVGILPRTHGSALFTRGETQAIVVATLGTGEDEQYIDSLTGLEHHHHHH”, the protein production entry is reported as “not failed”.

As for “MSLISIFIPEILLVIMGFIVLAVGMFIQSGKASAAISFITLIAALLSVFFIPYDSSYGITVNKFSVYFSAVLIISALFISLPMYRYVKKRPEVFYASLIFSVIGMVIVAMTWNLVIAFVAFESVSIMTYIMSAYGGKQRNLEATIKYFFTGTIATTFIILGIGFYFFSVHTFSLSPVLNGSSISYYSGTKPEFLLALLFLLIGFGFKLAIFPMHQWAIDAYDGTENGVSAYLSTGTKIMAFVLVLKIFLVGFQSFPTPVYYMFTIIAIITMTYANVAALSQMNVKRLLAYSSVAQAGYMILVISVVSYVGLGSARSVSLAIAAGMFYALVYVFMKGGSFIAMNMVKEDNITFENISGLGKKSPYVAASFSILLLSLAGIPLTGGFLAKYFLFLSVIDSGLWWLAIIAIINSAISVFYYMKVMRYLFWEEPKGEFSTDMGNKAAVIVSAAIVVFLGVFYVLFPVLVGISSQIVG”, the protein production entry was “failed”.

Regarding “MNDRARELASRLIRNFNEASLEHEVREPLYESAAARLGTGTVAHKLGASVDVVAPGKRSCPYHFHHAQEEMFVIIEGEGSLRVAGEMLPIKTGDVLFIPAGPEYPHQIINTSQAPLKYLSISTRETPEVCEYPDSGKYQAMVSANGARVFTANQRTTENVDYWDGEPLEHHHHHH”, the protein production result is listed as “not failed”.
